Data: US20130035289A1, “PHARMACEUTICAL COMPOSITION FOR TREATMENT OF THROMBOSIS-RELATED DISEASES COMPRISING A FRAGMENT OF PROLACTIN (PRL)-GROWTH HORMONE (GH)-PLACENTAL LACTOGEN (PL)-FAMILY PROTEIN” (UNIVERSITE DE LIEGE, priority 2010, published 2013)

Legend:
[1] = tested on: B16F10 tumor; experiment: B16F10 subcutaneous tumor model in wild type and PAI-1 deficient mice; type: in vivo, mouse
Procedure: Homozygous PAI-1 deficient mice (PAI-1^−/−) and the corresponding WT mice (PAI^+/+) from either sex with a mixed genetic background 87% C57BL/6 and 13% 129 strain were used throughout this study. The animal experiment protocol used was approved by the Institutional Ethics Committee of the University of Liege.
Subconfluent B16-F10 cells were trypsinized, washed, and resuspended in PBS. Cell suspension (10^5 cells in 50 μl PBS) was injected subcutaneously into the right flank of mice experiments were performed on seven mice in each group. 18 to 20 days after tumor cells injection, the mice were killed and their tumors harvested. Tumor growth was assessed by measuring the length and width of each tumor every 1 to 2 days and calculating tumor volume by means of the formula: length×width^2×0.5.
16K-Ad is a defective recombinant E1-E3-deleted adenovirus vector encoding a secreted polypeptide consisting of the first 139 amino acids of PRL. This adenovirus vector was constructed as previously described with the help of the Adeno-X expression system (BD Biosciences, Erembodegem, Belgium). Null-Ad is a control adenovirus carrying an empty expression cassette. A recombinant adenovirus vector bearing WT human PAI-1 (AdCMVPAI-1) and control adenovirus (AddRR5) were generated as previously described.
The 16K hPRL adenovirus and their corresponding control were injected into mouse tail vein 2 days before the subcutaneous injection of tumor cells. A second injection was done 8 days after the first one. The wt PAI-1 adenovirus and their control were injected one day after the 16K hPRL adenovirus injections. 10^9 pfu of adenoviruses were used for each tail vein injection.
(§1) HUVECs were grown to 70% confluence on gelatin-coated 35-mm dishes. After incubation for 3 h with 14K GH (160 ng/ml) or 16K PRL (160 ng/ml), the cells were washed with PBS at room temperature and incubated for 1 h at room temperature under non-permeabilization conditions with mouse anti uPA (American Diagnostica INC) diluted 1/100, rabbit anti prolactin (Dako) diluted 1/100, or rabbit anti human GH (home made) diluted 1/100. Endothelial cells were washed in PBS and incubated with FITC horse anti mouse (Vector Laboratory) and Texas red goat anti rabbit antibodies (Jackson Laboratory). For PAI-1 staining, the cells were incubated simultaneously with Histag PAI-1 at 800 uM and 16K PRL or 14K GH. […] Cryostat tumor sections (5 μm thick) were fixed in acetone at −20° C. and in 100% methanol at 4° C. and then incubated with the primary antibodies, rat monoclonal anti PECAM-1, and rabbit polyclonal anti-prolactin (DAKO) for 1 hour at room temperature. The slides were washed and incubated with a Cy3 goat anti-rat and an FITC goat anti-rabbit antibody. After 3 washes in PBS for 10 min, the slides were covered with coverslips in mounting medium (Victor Laboratories Inc.) and analyzed by fluorescence microscopy.

[2] = tested on: NF-κB; experiment: NF-κB activity in ABAE cells; type: cell-based, bovine; conditions: PAI-1 knockdown with si-RNA, 16K PRL 50 nM 1 h
[3] = tested on: NF-κB; experiment: NF-κB p65 DNA-binding activity in HUVECs; type: cell-based, human; conditions: 16K PRL 50 nM 1 h
Procedure: HUVECs were incubated for 2 h with 16K PRL and immunostained for uPA (red) or 16K PRL (green) and nuclei (DAPI, blue). Bottom panels: co-localization of PAI-1 and 16K PRL. To visualize added PAI-1 and not endogenous PAI-1, cells were incubated with His-tag PAI-1 and 16K PRL and stained for PAI-1 (red), 16K PRL (green), and nuclei (DAPI, blue). (B) Schematic outline of the proximity ligation assay (PLA) strategy showing primary antibody from different species for uPA and 16K PRL. Juxtaposition of secondary, oligonucleotide ligated antibodies allows a rolling circle amplification detected by a cy3-probe. (C) Detection of uPA/16K PRL complexes (red spots) on HUVECs by PLA. […]
HUVECs were pre-treated with a blocking uPAR Ab 3 μg/ml (R&D system) or control IgG (SantaCruz) for 1 h and then incubated for 1 h with 16K PRL (50 nM). The p65 DNA-binding activity of NF-κB was quantified by ELISA (EZ Transcription Factor kit NF-κB p65 (Pierce)) according to the manufacturer's instructions on total protein extracts. Protein concentrations were determined by the […] using the BCA protein assay reagent (Pierce). NF-κB binding to the target oligonucleotide was detected by incubation with primary antibody specific for the activated form of p65, visualized by anti-IgG horseradish peroxidase conjugate and developing solution. Chemiluminescence was quantified with a luminometer.

[4] = molecular target: T1, uPA (Homo sapiens, UniProt P00749+P05121); experiment: In situ proximity ligation assay (PLA) on HUVECs; type: cell-based
T1 construct: endogenous in cells; host or cells: HUVEC
Procedure: HUVECs were grown on gelatin-coated glass coverslips. After incubation for 2 h with 14K GH (50 nM) or 16K PRL (50 nM), the cells were washed with PBS at room temperature and fixed with 4% paraformaldehyde for 15 min, blocked, permeabilized and incubated overnight with mouse anti uPA (American Diagnostica Inc. Greenwich, Conn.) diluted 1/100 and rabbit anti prolactin (Dako) diluted 1/100, or rabbit anti human GH (home made) diluted 1/100. PLA was performed according to the manufacturer's instructions using the Duolink Detection Kit 563 (Olink Bioscience) with anti-mouse MINUS and anti-rabbit PLUS PLA probes. DAPI nucleus stain was added to the mounting media and the slides were analyzed by fluorescence microscopy.

[5] = molecular target: T2, PAI-1 (Homo sapiens, UniProt P05121); experiment: Immunofluorescence staining on HUVEC, co-localization with His-tag PAI-1; type: cell-based; conditions: HUVECs, PAI-1 added to the medium with 16K PRL
T2 construct: gift of Pr; P. Declerck
Procedure: as §1

T2 sequence (P05121 24-402): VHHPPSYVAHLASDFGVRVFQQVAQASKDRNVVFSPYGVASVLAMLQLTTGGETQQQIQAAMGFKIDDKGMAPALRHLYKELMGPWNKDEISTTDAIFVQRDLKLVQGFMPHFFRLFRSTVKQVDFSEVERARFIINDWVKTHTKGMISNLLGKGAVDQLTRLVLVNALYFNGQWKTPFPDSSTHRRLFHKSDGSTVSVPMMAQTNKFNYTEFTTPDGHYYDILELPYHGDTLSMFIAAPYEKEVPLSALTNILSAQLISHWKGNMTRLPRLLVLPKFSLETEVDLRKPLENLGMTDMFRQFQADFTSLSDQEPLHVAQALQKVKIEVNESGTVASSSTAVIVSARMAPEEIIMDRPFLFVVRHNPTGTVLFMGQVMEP

B1: 16K hPRL: 16K N-terminal human prolactin fragment, recombinant, produced and purified from E. coli (protein)
chain: LPICPGGAARCQVTLRDLFDRAVVLSHYIHNLSSEMFSEFDKRYTHGRGFITKAINSCHTSSLATPEDKEQAQQMNQKDFLSLIVSILRSWNEPLYHLVTEVRGMQEAPEAILSKAVEIEEQTKRLLEGMELIVSQVHP
16K PRL localization (immunostaining) ([1]; PAI-1-deficient mice): only in the bloodstream
plasma level of 16K PRL at the end of the experiment ([1]; PAI-1 deficient mice): remained detectable
anti-tumoral effect ([1]; PAI-1 deficient mice with systemic expression of human PAI-1 (adenoviral vector)): restored
tumor growth ([1]; PAI-1 deficient mice, 16K PRL expressed via 16K-Ad): did not show a tumor growth reduction
tumor blood vessels ([1]; PAI-1−/− mice): appeared normal
plasma level of 16K PRL at the end of the experiment ([1]; mice where human PAI-1 expression was restored): considerably dropped off
16K PRL localization (immunostaining) ([1]; wild-type mice and PAI-1−/− mice injected with PAI-1-Ad): observed in tumor tissues
tumor blood vessels ([1]; wild-type mice, versus untreated controls): smaller, collapsed blood vessels
16K PRL action on ECs (NF-κB activity) [2]: reduced
16K PRL-induced NF-κB signaling ([3]; blocking uPAR antibody pre-treatment 1 h): disrupts
16K PRL response (NF-κB activity), requirement of uPA ([3]; pre-treatment with ATF of uPA): required
distance between uPA and 16K PRL [4]: less than 40 nm
co-localization with PAI-1 [5]: co-localization of 16K PRL and PAI-1 was observed
